Here are results for four molecules from patent publication US7135170B2 (ZymoGenetics, Inc., priority 2002, dated 2006).

Test [1] has as its system HSV-2. Description: HSV-2 cytopathic effect inhibition in Vero cells. The test is classed as cell-based, Herpes Simplex Virus-2. Particulars: HSV-2, Vero cells. How it is done: The Vero cells are propagated in Dulbecco's modified essential medium (DMEM) containing phenol red with 10% horse serum, 1% glutamine and 1% penicillin-streptomycin, while the CPE inhibition assays are performed in DMEM without phenol red with 2% FBS, 1% glutamine and 1% Pen-Strep. On the day preceding the assays, cells were trypsinized (1% trypsin-EDTA), washed, counted and plated out at 10^4 cells/well in a 96-well flat-bottom BioCoat® plates (Fisher Scientific, Pittsburgh, Pa.) in a volume of 100 μl/well. The next morning, the medium was removed and a pre-titered aliquot of virus was added to the cells. The amount of virus used is the maximum dilution that would yield complete cell killing (>80% ) at the time of maximal CPE development. Cell viability is determined using a CellTiter 96® reagent (Promega) according to the manufacturer's protocol, using a Vmax plate reader (Molecular Devices, Sunnyvale, Calif.). Compounds are tested at six concentrations each, diluted in assay medium in a half-log series. Acyclovir was used as a positive control. Compounds are added at the time of viral infection. The average background and drug color-corrected data for percent CPE reduction and percent cell viability at each concentration are determined relative to controls and the IC50 calculated relative to the TC50.
(In general: Cytopathic effects are the visible damage that an infection or toxin causes in cultured cells.)

Test [2] concerns HHV-8. The test can be described thus: HHV-8 replication in BCBL-1 cells (TaqMan PCR, CellTiter96). Particulars: six days. The test is classed as cell-based, Human Herpesvirus-8.
Test [3] relates to ISG induction (OAS, Pkr, Mx1) in AML-12 cells. The test can be described thus: ISG induction in the mouse liver cell line AML-12 (real-time PCR). The test is classed as cell-based. Particulars: AML-12, 20 ng/ml, 48 hour time point. As for the experimental part: AML-12 cells were plated in 6-well plates in complete DMEM media at a concentration of 2×10^6 cells/well. […] As a control, cells were either stimulated with mouse IFNα (positive control) or unstimulated (negative). […] RNA was isolated from cell pellets using RNAEasy-kit® (Qiagen, Valencia, Calif.). RNA was treated with DNase (Millipore, Billerica, Mass.) to clean RNA of any contaminating DNA. cDNA was generated using Perkin-Elmer RT mix. ISG gene induction was evaluated by real-time PCR using primers and probes specific for mouse OAS, Pkr and Mx1. To obtain quantitative data, HPRT real-time PCR was duplexed with ISG PCR. A standard curve was obtained using known amounts of RNA from IFN-stimulated mouse PBLs. All data are shown as expression relative to internal HPRT expression.
All data shown were expressed as fold relative to HPRT gene expression

For test [4], the system named is BVDV. The test can be described thus: BVDV cytopathic effect inhibition in MDBK bovine kidney cells. The test is classed as cell-based, bovine viral diarrhea virus. As for the experimental part:
The MDBK cells were propagated in Dulbecco's modified essential medium (DMEM) containing phenol red with 10% horse serum, 1% glutamine and 1% penicillin-streptomycin. CPE inhibition assays were performed in DMEM without phenol red with 2% FBS, 1% glutamine and 1% Pen-Strep. On the day preceding the assays, cells were trypsinized (1% trypsin-EDTA), washed, counted and plated out at 10^4 cells/well in a 96-well flat-bottom BioCoat® plates (Fisher Scientific, Pittsburgh, Pa.) in a volume of 100 μl/well. The next day, the medium was removed and a pre-titered aliquot of virus was added to the cells. The amount of virus was the maximum dilution that would yield complete cell killing (>80% ) at the time of maximal CPE development (day 7 for BVDV). Cell viability was determined using a CellTiter96® reagent (Promega) according to the manufacturer's protocol, using a Vmax plate reader (Molecular Devices, Sunnyvale, Calif.). Test samples were tested at six concentrations each, diluted in assay medium in a half-log series. IFNα and RIBAVIRIN® were used as positive controls. Test sample were added at the time of viral infection. The average background and sample color-corrected data for percent CPE reduction and percent cell viability at each concentration were determined relative to controls and the IC50 calculated relative to the TC50.

For test [5], the system named is OAS activity. The test can be described thus: OAS activity in serum and plasma of mice (OAS radioimmunoassay). Particulars: i.v., 10 μg–250 μg. The test is classed as in vivo, mouse. How it is done:
Serum and plasma were isolated from mice at varying time points, and OAS activity was measured using the OAS radioimmunoassay (RIA) kit from Eiken Chemicals (Tokyo, Japan).

The test system of test [6] is human marrow mononuclear cells. Description: Bone marrow expansion assay (Alamar Blue). The test is classed as cell-based. The note with it: in the presence of IL-2 or IL-15. (Alamar Blue is a resazurin reagent that responds to reducing activity.)
For test [7], the system named is ISGs OAS, Pkr and Mx1 in spleens. The test can be described thus: ISG expression in spleens of Eu-lck human IL-29 transgenic mice. The test is classed as in vivo, mouse. Particulars: spleen of IL-29 Tg mice. How it is done:
This promoter is active in T cells and B cells. Transgenic mice and their non-transgenic littermates (n=2/gp) were sacrificed at about 10 weeks of age. Spleens of mice were isolated. RNA was isolated from cell pellets using RNAEasy-kit® (Qiagen). RNA was treated with DNase to clean RNA of any contaminating DNA. cDNA was generated using Perkin-Elmer RT® mix. ISG gene induction was evaluated by real-time PCR using primers and probes (5′ FAM, 3′ NFQ) specific for mouse OAS, Pkr and Mx1. To obtain quantitative data, HPRT real-time PCR was duplexed with ISG PCR. Furthermore, a standard curve was obtained using known amounts of IFN stimulated mouse PBLs. All data are shown as expression relative to internal HPRT expression.
All data shown are fold expression relative to HPRT gene expression. The average expression in two mice is shown

Test [8] relates to adenoviral vector, AdGFP. The test can be described thus: Adenoviral vector (AdGFP) liver pathology in mice. The note with it: for liver and inflammation scores (histology): vs the PBS-treated group.
Test [9] concerns EMCV. The test can be described thus: EMCV antiviral assay (MTT dye-uptake) in HepG2 cells. The test is classed as cell-based, encephalomyocarditis virus. Particulars: cytokine 24 hours before EMCV, OD570. In general terms: Tetrazolium assays rely on reduction of a dye to a coloured formazan, in cell work by metabolically active cells.
The subject of test [10] is ISG gene expression (OAS, Pkr, Mx1) in liver, spleen and blood. The test can be described thus: ISG gene expression in liver, spleen and blood of injected mice (real-time PCR). The test is classed as in vivo, mouse. The note with it: mice. How it is done:
Mice were sacrificed at various time points (1 hr-48 hr). Spleens and livers were isolated from mice, and RNA was isolated. RNA was also isolated from the blood cells. The cells were pelleted and RNA isolated from pellets using RNAEasy®-kit (Qiagen). RNA was treated with DNase (Amicon) to rid RNA of any contaminating DNA. cDNA was generated using Perkin-Elmer RT mix (Perkin-Elmer). ISG gene induction was measured by real-time PCR using primers and probes specific for mouse OAS, Pkr and Mx1. To obtain quantitative data, HPRT real-time PCR was duplexed with ISG PCR. A standard curve was calculated using known amounts of IFN-stimulated mouse PBLs. All data are shown as expression relative to internal HPRT expression.
Results shown are fold expression relative to HPRT gene expression. […] The data shown is the average expression from 5 different animals/group.
Mice were injected with 100 μg of proteins i.v. Data shown is fold expression over HPRT expression from livers of mice. Similar data was obtained from blood and spleens of mice.

The subject of test [11] is Mouse B cells. The test can be described thus: Mouse B cell 3H-thymidine incorporation. The test is classed as cell-based. As for the experimental part: Mouse B cells were isolated from 2 Balb/C spleens (7 months old) by depleting CD43+ cells using MACS magnetic beads. Purified B cells were cultured in vitro with LPS, anti-IgM or anti-CD40 monoclonal antibodies. Mouse IL-28 or mouse IFNα was added to the cultures and ^3H-thymidine was added at 48 hrs. and ^3H-thymidine incorporation was measured after 72 hrs. culture.

Test [12] concerns ISRE signaling in HepG2 cells. The test can be described thus: ISRE-luciferase signal transduction reporter assay in HepG2 cells. The note with it: 100 ng/ml ligand, 4-hour; RLU over medium alone. The test is classed as cell-based, human.
The mark [13] stands for this setting: average of two mice (Non-Tg 4.5).

In the case of IFNα, the antiviral activity result in [1] was “no antiviral activity”.

B1: IL-28A: human IL-28A polypeptide, previous designation zcyto20 (SEQ ID NOS: 2, 18, 36) (protein, listed as Homo sapiens)
chain: MKLDMTGDCTPVLVLMAAVLTVTGAVPVARLHGALPDARGCHIAQFKSLSPQELQAFKRAKDALEESLLLKDCRCHSRLFPRTWDLRQLQVRERPMALEAELALTLKVLEATADTDPALVDVLDQPLHTLHHILSQFRACIQPQPTAGPRTRGRLHHWLYRLQEAPKKESPGCLEASVTFNLFRLLTRDLNCVASGDLCV
modifications: SIGNAL (1)...(25)
Take B1: in test [2], the “IC50, extracellular HHV-8 DNA” value stood at 1 µg/mL. Besides, in test [3], the Mx1 expression is 0.06 fold relative to HPRT gene expression, the OAS expression was 0.04 fold relative to HPRT gene expression and the PkR expression was 0.02 fold relative to HPRT gene expression. Besides, the “IC50, inhibition of cell death induced by BVDV” value in test [4] amounted to 0.02 µg/mL. Besides, the “OAS activity in the serum and plasma of mice” value in test [5] is on record as “induced OAS activity”.

B2: IL-29: human IL-29 polypeptide, previous designation zcyto21 (SEQ ID NOS: 4, 20, 38) (protein, listed as Homo sapiens)
chain: MAAAWTVVLVTLVLGLAVAGPVPTSKPTTTGKGCHIGRFKSLSPQELASFKKARDALEESLKLKNWSCSSPVFPGNWDLRLLQVRERPVALEAELALTLKVLEAAAGPALEDVLDQPLHTLHHILSQLQACIQPQPTAGPRPRGRLHHWLHRLQEAPKKESAGCLEASVTFNLFRLLTRDLKYVADGNLCLRTSTHPEST
modifications: SIGNAL (1)...(19)
A word on the EC50: it is the concentration giving half of the maximal effect. Read a high EC50 as a need for much substance. As to B2, the “expansion of bone marrow cells” value in test [6] is “small inhibition”. In test [2], the “IC50, extracellular HHV-8 DNA” value was determined as 6.5 µg/mL. Moreover, the Mx1 expression in test [7] (average of two mice (Non-Tg 3.5)) is 21 fold expression relative to HPRT gene expression. In addition, in test [7] (setting [13]), the OAS expression is listed as 12 fold expression relative to HPRT gene expression and the PkR expression is on record as 8 fold expression relative to HPRT gene expression. Moreover, the “liver histology: sinusoidal cells, mitotic figures, changes in the hepatocytes” value in [8] (vs the PBS treatment group) was “less proliferation of sinusoidal cells, fewer mitotic figures and fewer changes in the hepatocytes”. Also, in test [8], the “liver and inflammation scores (histology)” value is “lower liver and inflammation scores”. In addition, the EC50 in test [9] was 0.60 ng/mL. Moreover, in test [3], the Mx1 expression is 0.07 fold relative to HPRT gene expression, the OAS expression was 0.04 fold relative to HPRT gene expression and the PkR expression is given as 0.02 fold relative to HPRT gene expression. In addition, the “IC50, inhibition of cell death induced by BVDV” value in test [4] was found to be 0.19 µg/mL. Further, the “time of peak expression of ISGs after injection” value in test [10] was in the range of 1 to 6 h.

B3: Zcyto24: previous designation for mouse IL-28A (SEQ ID NO: 8); mouse IL-28 (zcyto24) in b234 (protein, listed as Mus musculus)
chain: MKPETAGGHMLLLLLPLLLAAVLTRTQADPVPRATRLPVEAKDCHIAQFKSLSPKELQAFKKAKDAIEKRLLEKDLRCSSHLFPRAWDLKQLQVQERPKALQAEVALTLKVWENMTDSALATILGQPLHTLSHIHSQLQTCTQLQATAEPRSPSRRLSRWLHRLQEAQSKETPGCLEASVTSNLFRLLTRDLKCVANGDQCV
For B3, the “3H-thymidine incorporation by mouse B cells” value in test [11] (stimulated with LPS or anti-IgM, IFNα 10 ng/ml, mouse IL-28 any concentration incl. 1000 ng/ml) was “did not inhibit”. In addition, the “3H thymidine incorporation by mouse B cells” value in test [11] (stimulated with anti-CD40 MAb) is “increased”. The “liver and inflammation scores (histology)” value in [8] was “lower liver and inflammation scores”. Also, in test [3], the Mx1 expression is 0.08 fold relative to HPRT gene expression, the OAS expression is listed as 0.04 fold relative to HPRT gene expression and the PkR expression is 0.02 fold relative to HPRT gene expression. The “Fold Inductn. of ISRE signaling” value in test [12] is 4.7 fold.
